{"source": "the nanobody polyreactivity screen of Harvey et al. (2022)", "data": [{"test": "yeast display, Sf9 membrane polyspecificity reagent, FACS + sequencing; frameworks hold sequencing errors", "procedure,_shortened": "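Nanobodies came from a synthetic yeast display library in Saccharomyces cerevisiae BJ5465, induced with galactose for 36–48 hours and stained for 1 hour at 4 °C with 10% biotinylated, detergent-solubilized Sf9 membrane reagent. Cells were enriched on streptavidin microbeads and then FACS-sorted, with low and high (top ~1%) gates set on anti-HA fluorescence for expression and streptavidin fluorescence for reagent binding. Each polyreactivity label reflects the gate a clone came from. Genes were amplified by colony PCR, sequenced by MiSeq 2 × 250 and filtered by CDR length.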", "values": [{"sequence": "QVQLVESGGGLVQAGGSLRLSCADSGRTFRFNTRGWYRQAPGKEWVLVASISSSGGRTYYADSVKGRFTISRDNAKNTLYLQMHSLKPEDTAVYYCAAAAGWGARTSTYCGYDYWGQGTQVTVST", "polyreactivity (PSR sort gate)": "high polyreactivity"}, {"sequence": "QVQLVESGGGLVQAGGSLRFSCAPSGITFRFYAMGCYRQAPGKESEFVAAISSRGGRTYYADSVKGRFTISRDYAKNTVYLQMNSLKPEDTAVYYCAAGKIGRYHYDYWGQGTQVTVSS", "polyreactivity (PSR sort gate)": "high polyreactivity"}, {"sequence": "QVQLVESGGGLFQAGGSLRISCAASGSIFRSYAMGWYRQAPGKERELVASISRRGGSTYYADSVKGRFTISRDNAKNTVYLQMNSLKPEDTAVYYCAAVRYNSRVSTTPSEMYYWGQGTQVTVSS", "polyreactivity (PSR sort gate)": "low polyreactivity"}, {"sequence": "QVLLVESGGGLVQAGGSLRLSCAASGSTFWRNAMGWYRQATGKERELVAVISGSGSRTFYADSVKGRFTISRDNAKNTVNLQMNSLKPEDTAVYYCAADARQYQGFDYWGQGTQVTVSS", "polyreactivity (PSR sort gate)": "high polyreactivity"}, {"sequence": "QVQLVESGGGLVQAGGSLRLSCAASGRIFEVYTMGWYRQAPGKERELVAAIDRSTGSTYYADSVKGRFTISRDNAKNTVYLQMNSLKPEDTAVYYCAARGTFLGTRPLGRFDYWGQGTQVTVSS", "polyreactivity (PSR sort gate)": "low polyreactivity"}, {"sequence": "QVKHVESGGGLVQAGGSLRLTCAASGRTFDRYARGWCRQAPGKDRQLVASISWTGGSPYYADSVKGRFTISRDNAKNTVYLQMNSLKPEVTAVYYCAVRFDYWGQGTQVTVSS", "polyreactivity (PSR sort gate)": "low polyreactivity"}, {"sequence": "QVQLVESGGGLVQAGGSLRLSCAASGSTFGYNAMGWYRQAPGKERELVAAITYRGSTYYADSVKGRFTISRDNAKNTVYLQMNSLKPEDTAVYYCATQGARYYHTYGYWGQGTQVTVSS", "polyreactivity (PSR sort gate)": "low polyreactivity"}, {"sequence": "QVQLVESGGGLVQAGGSLRLSCAASGSTFVYNVMGWYRQAPGKERELVAAITSCVRTYYADSVKGRFTISRDNAKNTVYLQMNSLKPEDTAVYYCAARGYYSVVEYYYWGQGTQVTVSS", "polyreactivity (PSR sort gate)": "high polyreactivity"}, {"sequence": "QVQLVESGGGLLQAGGSLRLSCAASGRTFGSYAKGWYRQAPGKERELVAGIRSDDITHYADSVKGRFTISRDNAKNTVYLQMNSLKPEDTAVYYCAKDYKCIATEGAFDYWGQGTQVTVSS", "polyreactivity (PSR sort gate)": "low polyreactivity"}, {"sequence": "QVQLVESGGGLVQAGGSLRLSCAASGSTFRTYAMGWYRQAPGKERELVAAISRSGGSTYYADSVKGRFTISRDNAKNTFYLQMNSLKPEDTAVYYCAARGGRGWTPSDYWGQGTQVTVSS", "polyreactivity (PSR sort gate)": "high polyreactivity"}, {"sequence": "QVQLVESGGGLVQAGGSLRLSCAASGSIFNSNAMGWSRQAPGKERELVAVISWSDGSTRYADSVKGRFTISRDNAKNTVYLQMNSLKPEDTAVYYCNADLVYYYRQEVDYWGQGTQVTVSS", "polyreactivity (PSR sort gate)": "low polyreactivity"}, {"sequence": "QVQLVESGGGLVQAGGSLRLSCAASGSIFRYYVMGWYRHAPGKERELVAAISGGSTYYADSVKGRFTISRDNAKNTVYLQMNSLKPEDTAVYYCAARGKRRSGGENYAYGYWGQGTQVTVSS", "polyreactivity (PSR sort gate)": "high polyreactivity"}, {"sequence": "QVQLVESGGGLVQAGGSLRLSCAASGSTVDFNAMGWYRQAPGKERELVAGISRDGGSTYYADSVKGRFTISRDYAKNTVYLEMNSLKPEDTAVYYCAVEAWSVPPYDYWGQGTQVTVSS", "polyreactivity (PSR sort gate)": "low polyreactivity"}, {"sequence": "QVQLVESGGGLVQAGGSLRLSCAASGLIFSSNAMGWYRQAPGKERELVAAISRRGGNTYYADSVKGRFTISRDNAKNTVYLQMNSLKPEDTAVYYCAIRYVGRGTSYQDYYWGLGTQVTVSS", "polyreactivity (PSR sort gate)": "high polyreactivity"}, {"sequence": "QVQLVESGGGLVQAGGSLRLTCAASGFTFGSYVMGWYRQAPGKERELVADISIRGGSTYYADSVKGRFTISRDNAKNTVYLQMHSLKPEDTAVYYCNADPAFYYWEGIVGGADYDYWGIGTQVTVSS", "polyreactivity (PSR sort gate)": "low polyreactivity"}, {"sequence": "QVQLVESGGGLVQAGGSLRLSCAASGSTFSFNAMGWYRQAPGKERELVAAITGGDGTNYADSVKGRFTISRDNAKNTVYLQMNILKPEDTAVYYCAAYQWGSTEDYWFTYGYWGQGTQVTVSS", "polyreactivity (PSR sort gate)": "low polyreactivity"}, {"sequence": "QVQLVESGGGLVQAGGSLRLSCADSGLILHKYAMGWYRQAPGKDRELVASINSGANTNYADSVKGRFTISRDNAKNTVYLQMNSLKPEDSAEYYCNADPGFRSGEYGYSSFDYWGQGTQVTVSS", "polyreactivity (PSR sort gate)": "low polyreactivity"}, {"sequence": "QVKLVESGGGLVQAGGSLRLSCAASGFILGYYAMGWYRQAPGKERELVASISRRGGSTYYADSVKGRFTISRDNAKNTVYLQMNSLKPEDTAVYYCAASGYGRYPPYEYWGQGTQVTVSS", "polyreactivity (PSR sort gate)": "high polyreactivity"}, {"sequence": "QVQLVESAGGLVQAGGSLRLSCAASGFIFRNYAMGWYRQEHGKERELVAAISRRGGSTYYADSVKGRFTISRDNAKNTVYLQMNSLKPEDTAVYYCAADYYYSSRIEYYYWGQGTQVTVSS", "polyreactivity (PSR sort gate)": "high polyreactivity"}, {"sequence": "QVQLVESGGGLVQAGGSLRLSCAASGSIFSRYAMGWYRQAPGKERELVAAISRGGSTNYADSVKGRFTISRDNAMNTVYLQMNSLKPEDTAVYYCAADGGKNPVRYDYWGQGTQVTVSS", "polyreactivity (PSR sort gate)": "high polyreactivity"}, {"sequence": "QVQLVESGGGLVQAGGSLRLSCAASGSIFPRNAMGWYRQAPGKERELVAAIRKSGGSTYYADSVKGRFTISRDNAKNTVYLQMNSLKPEDTAVYYCAKTYSVSSWQSPIYNYWGQGTQVTVSS", "polyreactivity (PSR sort gate)": "low polyreactivity"}, {"sequence": "QVQLVESGGGVVQAGGTLRLSCAASGSTFPKYAMGWYRQAPGKERELVAAISLSGVRTYYADSVKGRFTISRDNAKNTVYLQMTSLKPEDTAVYYCNAVFDRYPYRYDYWGQGTQVTVSS", "polyreactivity (PSR sort gate)": "high polyreactivity"}, {"sequence": "QVQLVESGGGLVQAGGSLRLSCAASGSIFWPNSMGWYRQAPGKERELVAAISWGTGSTYYADSVKGRFTISRDNAKNTVYLQMNSLKPEDTAVYYCAADGAYLDPYYDYWGQGTQVTVSS", "polyreactivity (PSR sort gate)": "low polyreactivity"}, {"sequence": "QVQLVESGGGLVQAGGSLRLSCAASGITFYKNAMGWYRPAPGKERELVAAISGRGGTTYYADSVKGRFTLSRDNAKNTVYVQMNSLKPEDTAVYYCNTVRWAWPYLKFDYWGQGTQVTVSS", "polyreactivity (PSR sort gate)": "high polyreactivity"}, {"sequence": "QVQLVESGGGLVQAGGSLRLSCAASGRTFYFYAMGWYRQAPGKERELVAAISWTGGITYYADSVKGRFTISRDNAKNTVYLQMNSLKPEDTAVYYCAAGYYYKVYWGQGTQVTVSS", "polyreactivity (PSR sort gate)": "low polyreactivity"}, {"sequence": "QVQLQESGGGLVQAGGDLRLSCAASGNIFRDYIMGWYRQAPGKEREFVAGIDRGANTNYADSVKGRFTISRDNAINTVYLQMKSLKPVDTAVYYCAVHTAFVPDFIYWGQGTQVTVSS", "polyreactivity (PSR sort gate)": "low polyreactivity"}, {"sequence": "QVQLVESGGGLVQAGGSLRLSCASSGLILFYNAMGWYRQAPGKERELVATIRRGGTTYYADSVKGRFTISRDNAKNTVYLQMNSLKPEDTAVYYCAKESLYQYDYWGQGTQVTVSS", "polyreactivity (PSR sort gate)": "low polyreactivity"}, {"sequence": "QVQLVESGGGLVQAGGSLRLSCAASGRTYWPNALGWSRQARGKERELVAAISWRGGSTSYADSVKGRFTISRDNAKNTVYLQMNRLKPEDTAVYYCAATSIRRNSKVLISGRLYDYWGQGTQVTVSS", "polyreactivity (PSR sort gate)": "high polyreactivity"}, {"sequence": "QVQLVESGGGLVQAGGSLRLRCADSGSTFYDNAMGWYRQATGKVRELVATISDSGGRTYYADSVKGRFTISRDNAKNTVYLQMNSLKPEDTAVYYCAADNYYITTVTDMYYWGQGTQVTVSS", "polyreactivity (PSR sort gate)": "low polyreactivity"}, {"sequence": "QVQLVESGGGLVQAGGSLRLSCAASGRIFGSYTMGWYRQAPGKERELVAGISRRGGSTYYADSVKGRFTISRDNAKNTVYLQMNGLKPEDTAVYYCAAVSSVFSVRYDYWGQGTQVTVSS", "polyreactivity (PSR sort gate)": "high polyreactivity"}, {"sequence": "QVQLVESGGGLVPARGSLRLSCAASGFIFSDNAMGWYRQAPGKERELVAAITDDGDTTYYADSVKGSFTISRDNAKNTVYLQMISLKPEDTAVYYCATEIEDVEDSGPYYYVGYGYWGQGTQVTVSS", "polyreactivity (PSR sort gate)": "high polyreactivity"}]}]}
